According to the nanobody polyreactivity screen of Harvey et al. (2022):

Assay: yeast display, Sf9 membrane polyspecificity reagent, FACS + sequencing; frameworks hold sequencing errors
Summary of the method: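 Synthetic nanobody libraries on Saccharomyces cerevisiae BJ5465 were galactose-induced for 36–48 hours, stained 1 hour at 4 °C with 10% biotinylated, detergent-solubilized Sf9 membrane reagent and enriched on streptavidin microbeads. FACS then separated cells into low and high (top ~1%) gates by anti-HA (expression) and streptavidin (reagent binding) fluorescence. Genes were colony-PCR amplified, MiSeq 2 × 250 sequenced and CDR-length filtered. A clone's polyreactivity label is that of its gate of origin.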

| Sequence | polyreactivity (PSR sort gate) |
| --- | --- |
| QFHLVESGGGLVQAGGSLRLSCAATGSIFYTNAMGWYRQPAGTDRELVASIRSRDRTKYADSVKWRFSISRVNAKNTVYLQMNSLKPEDTAVYYCAADRYWYGVHASIYYYWGHGTQVTVSS | high polyreactivity |
| QFKLVESGGGLVQAGGSLRLSCAASGSTFKWNAMGWYRQAPGKERELVAAITSGGSTTYADSVKGRFTISRDNAKNTVYLQMNSLKPEDTAVYYCAAAYRRHYYGVYRFDYWGQGTQVTVSS | high polyreactivity |
| QFKLVESGGGLVQAGGSLRLSCAASGVIIQGNAMGWYRQAPGNEMELVAAISSSVSTYYADSVKGRFTISRDNAKNTVYLQMTSLKPEDTAVYYCNAGFPLSLWLGDYWGHGTQVTVSS | low polyreactivity |
| QFPLVESAGGLGQAGGTLRLTWAASGLSFGANTLGWYRHAPGKERELVAALTISGGITHYADSVKGRFTISRDNANNTVYVQIKSLQPEDTAVYYCAAGAYWRLYPYRQRNGGRMYYWGQGTQVTVSS | low polyreactivity |
| QFQHVDSGGGLVQAGGSLRLSCADSGYTFPLYDMGRYRKAPGKVSELVADINIGGASTYYADSVKGRLTISRDNSKNSVYLQMNSLKPEDTAVYYCAKEYYDGYFPTFDYDYWGQGTQVTVSS | low polyreactivity |
| QFQIVESGGGLVQAGGSLRLSCAASGGTFVSYAMGWYRQAPGKERELVAAITYSGGSTYYADSVKGRFTISRDNAKNTVYLQMNSLKPEDTAVYYCAAAKFSYFSYCPRGKVKYEYWGQGTQVTVSS | low polyreactivity |
| QFQIVESGGGLVQAGGSLRLSCAASGSTFRSYAMGWYRQAPGKERELFARISYRTGSTYYADSVKRRFTISRDNAKNTVYLQMNSLKPEDTVVYYCAAGYIIQRSYFLYDSWGHGTQVTVSS | high polyreactivity |
| QFQLEESGGGLVQAGGSLRLSCAASARIFLNYAMGWFRQAPGKEMELVAAIRSASSTYYADSVKGRFTISRDNAKNTVYLQMNSLKAEDTAVYYCARLRYFLLNGSLRYGSSDRDYWGQGTQVTVSS | high polyreactivity |
| QFQLLESGGGLVQAGGSLRLSCAASGRTFSYNAMGWYRKAPGIERELVAAITGGTASTYYADSVKGRFTISRDNAKNPVYFQMNSLKPEETAVYYCNRASVFHYPWYYYWGQGTQVTVSS | high polyreactivity |
| QFQLLESGGGLVQAGGSLRLSCAASGSTFSLTTMGWYRPAPGKERELVAAINSGGSTYYADSVKGRFTISRDNAKNTVYLKMNSLKPEDTAVYYCAARTKYFGRFDYWGQGTQVTVSS | low polyreactivity |
| QFQLLESGGGLVQAGGSLRRSCAASGFTFDYYAMGWSRQAPGKERELVAVNNWSGGDTYYADSVKGRFTISRDNAKNTVYLQMNSLKPEDTAVYYCARVERMRYVGKYYPIRDYWGQGNQVTVSS | high polyreactivity |
| QFQLVDSGGGLVQAGGSLRLRSAASGRTFYPYVMAWYRQAPGKEREIVAAISYTGCSTYYADSVKGRFTISRDNAKNTVYLQMNSLKPEDTAVYYCNRAKYYSGGYRYHVDYWGQGTQVTVSS | high polyreactivity |
| QFQLVDSGGGLVQAGGSLRLSCAASGSTFGYYAMGWYRQATGKERELVAAISWRGGSTSYADSVKGRFTISRDNAKNTVYLQMNSLIPEDTAVYLCAAGGDINKYGRQYRYDYWGQGTQVTVSS | high polyreactivity |
| QFQLVEAGGGLVQAGGSLRLSCAASGSIIPNYNMGWYRQAPAKETELVAAMSISGGTTYYADSVKGRFTISRDNAKNTVYLQMNSLKPEETAVYYCAAVEYYWFLGYYYRYDYWGQGTQVTVSS | high polyreactivity |
| QFQLVESAVVLVQAGGSLRLSCAASGGIFGSYAMGWYRQAPGKEMEFVAAIRYGSGSQYYADSVKGRFTISRDNAKNTVYLQMNSLKPEDTAVYYCATEYWGVYGYGFIYDYWGQGTQVTVSS | low polyreactivity |
| QFQLVESCGGLVHAGGSLRLSCAASGSIFFSYAMGWYRQAPGKERELVAAISSGGSTYYADSVKGRFTISRDNAKNTVYLQMNSLKPEDTAVYYCAARGYRLVPVDFYYWGQGTQVTVSS | low polyreactivity |
| QFQLVESCGGLVPAGGSLRLSCAASGRILSDYAMGWYRQAPGKERELVAVISWDGTNTYYADSVKGRFPISRDNAKNTVYLQMNSLKPEDTAVYYCAATGTSYYSAYDYWGQGTQVTVSS | low polyreactivity |
| QFQLVESGGALVQAGGSLRLSCAASGSTFTGYTMGWYRQAPGKERELVAAINWSGGRTYYADSVKGRFTISRDNAKNTVYLQMNSLKPDDTAVYYCAVRSRSLGGYLGQGTQVTVSS | high polyreactivity |
| QFQLVESGGGIVQAGGSLRLSCYASGTFYKYAMGWNTQAPGKERELVAAISWRGGRTYADSVKGRFTISRDNAKNTVYLQMNSLIPEDTAVYYCYKRFYPEHYYWGQGTQVTVSS | high polyreactivity |
| QFQLVESGGGLDQAGGSLRLSCAASGSIFWYYAMGWYRQAPGKERELVAAISISGSTYYADSVKGRFTISRDNAKNTVYLQMNSLKPEDTAVYYCAARKFFWRSNYDYWGQGTQVTVSS | low polyreactivity |
| QFQLVESGGGLDQAGGSLRLSCAATGSTFTSYAMGWYIQAPGKERELVAAITSRGGTYYADSVKGRFTISRDNAKNTVYLQMNSLKPEDTAVYYCAARATYKKYPYVKWYDYWGQGTQVTVSS | high polyreactivity |
| QFQLVESGGGLVHAVGSLRLSCAASGRTGKNAMGWYRQAPGKERELVAAIRYNGGSTYYADSVKGRFTISRDNAKNSVYLQMNSLKPEDTAVYYCAAAFRRHNGSAFNYWGQGTQVTVSS | high polyreactivity |

| Sequence | polyreactivity (PSR sort gate) |
| --- | --- |
| QFQLVESGGGLVQAGCSLRLSCAAYGSIFGGYAMGWYRQAPGKERELVAAISYRGASTYYADSVKGRFTISRDNAKNTVYLQMNILKPEDTAVYYCAVPARTRARVLYGYDYWGQGTQVTVSS | low polyreactivity |
| QFQLVESGGGLVQAGGILRLSCAASGSIFYHNAMGWSRQAPGKERELVAAITGSGGSTYYADSVKGRFTISRDNAKNTVYLQMNSLKPEDTAVYYCAADGYTKWWISWGYDYWGQGTQVTVSS | low polyreactivity |
| QFQLVESGGGLVQAGGRLRLSCAASGRIFRYSAMGWYRQAPGKERQLVASISSGGSTNYADSVKGRFTISRDNAKNTVYLQMNSLKQEDTAVYYCAARYWVSGFRAGYYWGQGTQVTVSS | high polyreactivity |
| QFQLVESGGGLVQAGGRLRLSCAASGSTFLPYAMGWYRQAPGKESELVAAIRGRGGRTYYADSVKGRFTISRANAKNTVYLQMNSLKPEDSAVYYCAADVKGLSWTYDSWGQGTQVTVSS | high polyreactivity |
| QFQLVESGGGLVQAGGSHRLSCAASGSIFFINAMGWYRQAPGKERELVASISQSGVSTYYADSVKGRFTISRDNAKNTVYFEMNSLKPEDTAVYYCATGPVRRARYVWSYTYYYWGQGTQVTVSS | low polyreactivity |
| QFQLVESGGGLVQAGGSLRISCAATGLIYYVYAMGWYRQAPGKESELVAAIRSGGSTNNADSVKGRFTISRDNAKNTVYLQMNRLKPEDTAVYYCAVDTWYFLFQYGYYQEGDYWGQGTQVTVSS | low polyreactivity |
| QFQLVESGGGLVQAGGSLRLICAASGFIFWYNAMGWYRQSPGKEREFVAAISSGGSTTYADSVKGRFTISRDNALITVYLQMNSLKPEDTAVYYCAAGSYDYDYWGQGTQVTVSS | low polyreactivity |
| QFQLVESGGGLVQAGGSLRLSCAASGFIFSFYAMGWYRQAPGKERELVARINWTGGSTYYADSVKGRFTISRDNAKNSVYLQMNSLKPEDTAVYYCARPVRRIIGVTDEYWGQGTQVTVSS | low polyreactivity |
| QFQLVESGGGLVQAGGSLRLSCAASGFIIRVNAMAWYRQAPGTERQLVATITWNGGSTYYADSVKGRFTISRDNAKNTVYLQMNSLKPDDTAVYYCNRVRYRGYYPGPYSYSYDYWGQGTQVTVSS | low polyreactivity |
| QFQLVESGGGLVQAGGSLRLSCAASGFTFDNYVMGWYRQAPGKERELVAAISKSGTSTYYADSVKGRFTISRDNAKNTVYLQMNSLKPEDTAVYYCAAALPGYGDYYYWGQGTQVTVSS | high polyreactivity |
| QFQLVESGGGLVQAGGSLRLSCAASGFTFWYYAMGWYRQAPGKERELVARITSRGADTYADSVKGRFTISRDNAKNTVYLQMNSLKPEDTAVYYCAVDPGFSWYEQYDYWGQGTQVTVST | low polyreactivity |
| QFQLVESGGGLVQAGGSLRLSCAASGFTFYYYTMGWYRQAPGKERELVAAITWRGGSTNYADSVKGRFTISRDNAKNTVYLQMNSLKPEDTAVYYCAAVTYWFWPGMDYWGQGTQVTVSS | low polyreactivity |
| QFQLVESGGGLVQAGGSLRLSCAASGFTIYLYTMGWYRQAPGKERELVATISWSGASTYYADSVKGRFTISRDNAKNTVYLQMNSLKPEDTAVYYCATRYRYRYWGQGTQVTVSS | high polyreactivity |
| QFQLVESGGGLVQAGGSLRLSCAASGGTFNQYAMGWYRQAPGKEREFVASISRRGGSTYYADSVKGRFTISRDNAKNTVDLQMNSLKPEDTAVYYCAADAFFRLDYYYWGQGTQVTVSS | high polyreactivity |
| QFQLVESGGGLVQAGGSLRLSCAASGIIFGNNAMGWYRQAPGKERELVAAIRWSTGTTYYADSVKGRFTISRDNAKNTVYLQMNSLKPEDTAVYYCAARLRREYGYWGQGTQVTVSS | high polyreactivity |
| QFQLVESGGGLVQAGGSLRLSCAASGIIFSLYAMGWYIQAPGKERELVAAITTGGRTYYADSVKGRFTISRDNAKNTVYFQMNSLKPEDTAVYYCAAQGPWQGGTTLSTNRGYWGQGTQVTVSS | high polyreactivity |
| QFQLVESGGGLVQAGGSLRLSCAASGIILAYYAMGWYRKEPGKERELVSSINRSGGSTYYADSVKGRFTISRDNAKNTVYLQMISLKPEYTAVYYCAATNRGVGQRSYRYYYWGQGTQVSVSS | high polyreactivity |
| QFQLVESGGGLVQAGGSLRLSCAASGIMFGYYAMGWYRQAPGKERELVAALTRSGGSTYYADSVKGRFTISRDNAKNTVYLQLNSLKPEDTALYYCNGDDDGRVSSTIVEYWGQGTQVTVSS | low polyreactivity |
| QFQLVESGGGLVQAGGSLRLSCAASGITFFPYAMGWYRQAPGKERELVASISDGGGTNYADSVKGRFTISRDNAKNTVYLQMNSLKPEDTAVYYCATDASTYAYYGGDYWGQGTQVTVSS | low polyreactivity |
| QFQLVESGGGLVQAGGSLRLSCAASGITFYGNAKGWYRQAPGKVREFVAAITVDGGSTYAVSVKGRFTISRDNAKNTVYLQMNSLKPEDTAVYYCNKAYLRRSLKSGYPYDSWGQGTQVTVSS | low polyreactivity |
| QFQLVESGGGLVQAGGSLRLSCAASGLTIYSYSMGWYRQAPGKERELVAAITWRGGSTYYADSVKGRFTISRDHAKNTDYLQMNSVKPEDTALYYCAADPGPYGYYYWGQGNQVTVSS | low polyreactivity |
